# T1: PUF4 RNA-binding domain (Saccharomyces cerevisiae, UniProt P25339 537-888)
# T1 sequence: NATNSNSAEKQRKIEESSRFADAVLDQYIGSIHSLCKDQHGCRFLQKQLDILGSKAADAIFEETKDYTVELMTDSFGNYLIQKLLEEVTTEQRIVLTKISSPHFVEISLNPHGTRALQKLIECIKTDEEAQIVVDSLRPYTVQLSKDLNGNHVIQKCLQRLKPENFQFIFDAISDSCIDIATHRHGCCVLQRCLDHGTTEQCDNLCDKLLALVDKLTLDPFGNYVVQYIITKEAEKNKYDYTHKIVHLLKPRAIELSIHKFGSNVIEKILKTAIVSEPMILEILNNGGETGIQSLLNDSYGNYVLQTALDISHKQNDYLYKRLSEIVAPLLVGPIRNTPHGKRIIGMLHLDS
# Target: T1, PUF4 RNA-binding domain
# Experiment: Mg; RNA-MaP; 20 mM Na-HEPES pH 7.4, 30 mM KOAc, 0.75 mM MgCl2, 0.1% Tween-20, 5% glycerol, 0.1 mg/mL BSA, 2 mM DTT; 25 C; 0.0125-409.6 nM protein
# Conditions: tags: N-His6-TEV cleaved; C-SNAP kept, Cy3B-labelled; label: tethered on chip by stalled RNA polymerase
row,Binder,Kd [nM]
1,UCUCUUCAUGUAUAUAGUUCUCUU (ssRNA) [Id_ii_S1_P3E.2_K3.1_C3.2_[T-1A]_H3.1_A3.1_F3.1_T3.2_[T9G]_[A10T]],5.84
2,UCUCUUUGUAUAUAUAGCUCUCUU (ssRNA) [Id_ii_S1_P3E.3_K3.2_C3.2_[C-2T]_[T-1G]_H3.2_A3.1_F3.1_T3.2_[T9G]_[A10C]],3.66
3,UCUCUUCUUGUAUAUAAUUCUCUU (ssRNA) [Id_ii_S1_P3E.2_K3.1_C3.2_H3.1_A3.1_F3.1_T3.2_[T9A]_[A10T]],8.3
4,UCUCUUUGCGUAUUAUCUCUU (ssRNA) [Ib_S1_P4E.1_K4.1_C4.1_H4.1_[T3C]_[A4G]_A4.1_F4.1_T4.1],> 2300
5,UCUCUUGAUAUAUAUAAUUCUCUU (ssRNA) [Id_ii_S1_P3E.3_K3.2_C3.2_[C-2G]_[T-1A]_H3.2_A3.1_F3.1_T3.2_[T9A]_[A10T]],1040
6,UCUCUUCAUGUAUAUAAAUCUCUU (ssRNA) [Id_ii_S1_P3E.2_K3.1_C3.2_[T-1A]_H3.1_A3.1_F3.1_T3.2_[T9A]],13.1
7,UCUCUUCUUGUAUAUAUGUCUCUU (ssRNA) [Id_ii_S1_P3E.2_K3.1_C3.2_H3.1_A3.1_F3.1_T3.2_[A10G]],12.2
8,UCUCUUGUUAUAUAUAGUUCUCUU (ssRNA) [Id_ii_S1_P3E.3_K3.2_C3.2_[C-2G]_H3.2_A3.1_F3.1_T3.2_[T9G]_[A10T]],12.1
9,UCUCUUGUUAUAUAUAUCUCUCUU (ssRNA) [Id_ii_S1_P3E.3_K3.2_C3.2_[C-2G]_H3.2_A3.1_F3.1_T3.2_[A10C]],24.8
10,UCUCUUCUUGUAUAUAACUCUCUU (ssRNA) [Id_ii_S1_P3E.2_K3.1_C3.2_H3.1_A3.1_F3.1_T3.2_[T9A]_[A10C]],8.53
11,UCUCUUCUUGUAUAUACCUCUCUU (ssRNA) [Id_ii_S1_P3E.2_K3.1_C3.2_H3.1_A3.1_F3.1_T3.2_[T9C]_[A10C]],7.41
12,UCUCUUCUUGUAUAUAUCUCUCUU (ssRNA) [Id_ii_S1_P3E.2_K3.1_C3.2_H3.1_A3.1_F3.1_T3.2_[A10C]],6.72
13,UCUCUUCAUGUAUAUACCUCUCUU (ssRNA) [Id_ii_S1_P3E.2_K3.1_C3.2_[T-1A]_H3.1_A3.1_F3.1_T3.2_[T9C]_[A10C]],17.7
14,UCUCUUUGUAUAUAUAGUUCUCUU (ssRNA) [Id_ii_S1_P3E.3_K3.2_C3.2_[C-2T]_[T-1G]_H3.2_A3.1_F3.1_T3.2_[T9G]_[A10T]],2.33
15,UCUCUUGCUAUAUAUAACUCUCUU (ssRNA) [Id_ii_S1_P3E.3_K3.2_C3.2_[C-2G]_[T-1C]_H3.2_A3.1_F3.1_T3.2_[T9A]_[A10C]],1500
16,UCUCUUAGUACAUUAUCUCUU (ssRNA) [Ib_S1_P4E.1_K4.1_C4.1_H4.1_[T1A]_A4.1_[T5C]_F4.1_T4.1],39.1
17,UCUCUUGCUAUAUAUAUCUCUCUU (ssRNA) [Id_ii_S1_P3E.3_K3.2_C3.2_[C-2G]_[T-1C]_H3.2_A3.1_F3.1_T3.2_[A10C]],545
18,UCUCUUGAUAUAUAUACCUCUCUU (ssRNA) [Id_ii_S1_P3E.3_K3.2_C3.2_[C-2G]_[T-1A]_H3.2_A3.1_F3.1_T3.2_[T9C]_[A10C]],1310
19,UCUCUUCUUGUAUAUAUUUCUCUU (ssRNA) [Id_ii_S1_P3E.2_K3.1_C3.2_H3.1_A3.1_F3.1_T3.2_[A10T]],5.12
20,UCUCUUCAUGUAUAUAAUUCUCUU (ssRNA) [Id_ii_S1_P3E.2_K3.1_C3.2_[T-1A]_H3.1_A3.1_F3.1_T3.2_[T9A]_[A10T]],11.6

row,Binder,Kd [nM]
1,UCUCUUCUUGUAUAUAGCUCUCUU (ssRNA) [Id_ii_S1_P3E.2_K3.1_C3.2_H3.1_A3.1_F3.1_T3.2_[T9G]_[A10C]],4.12
2,UCUCUUCCUGUAUAUAAUUCUCUU (ssRNA) [Id_ii_S1_P3E.2_K3.1_C3.2_[T-1C]_H3.1_A3.1_F3.1_T3.2_[T9A]_[A10T]],5.34
3,UCUCUUGUUAUAUAUAUAUCUCUU (ssRNA) [Id_ii_S1_P3E.3_K3.2_C3.2_[C-2G]_H3.2_A3.1_F3.1_T3.2],41.1
4,UCUCUUGGUAUAUAUAGUUCUCUU (ssRNA) [Id_ii_S1_P3E.3_K3.2_C3.2_[C-2G]_[T-1G]_H3.2_A3.1_F3.1_T3.2_[T9G]_[A10T]],124
5,UCUCUUCAUGUAUAUAUCUCUCUU (ssRNA) [Id_ii_S1_P3E.2_K3.1_C3.2_[T-1A]_H3.1_A3.1_F3.1_T3.2_[A10C]],8.05
6,UCUCUUCAUGUAUAUAAGUCUCUU (ssRNA) [Id_ii_S1_P3E.2_K3.1_C3.2_[T-1A]_H3.1_A3.1_F3.1_T3.2_[T9A]_[A10G]],6.69
7,UCUCUUGGUAUAUAUAACUCUCUU (ssRNA) [Id_ii_S1_P3E.3_K3.2_C3.2_[C-2G]_[T-1G]_H3.2_A3.1_F3.1_T3.2_[T9A]_[A10C]],782
8,UCUCUUGUUAUAUAUACCUCUCUU (ssRNA) [Id_ii_S1_P3E.3_K3.2_C3.2_[C-2G]_H3.2_A3.1_F3.1_T3.2_[T9C]_[A10C]],35.9
9,UCUCUUCAUGUAUAUAUUUCUCUU (ssRNA) [Id_ii_S1_P3E.2_K3.1_C3.2_[T-1A]_H3.1_A3.1_F3.1_T3.2_[A10T]],8.07
10,UCUCUUAGUAAAUUAUCUCUU (ssRNA) [Ib_S1_P4E.1_K4.1_C4.1_H4.1_[T1A]_A4.1_[T5A]_F4.1_T4.1],491
11,UCUCUUCUUGUAUAUAAAUCUCUU (ssRNA) [Id_ii_S1_P3E.2_K3.1_C3.2_H3.1_A3.1_F3.1_T3.2_[T9A]],8.21
12,UCUCUUUGUAUAUAUAAGUCUCUU (ssRNA) [Id_ii_S1_P3E.3_K3.2_C3.2_[C-2T]_[T-1G]_H3.2_A3.1_F3.1_T3.2_[T9A]_[A10G]],8.25
13,UCUCUUGCUAUAUAUACUUCUCUU (ssRNA) [Id_ii_S1_P3E.3_K3.2_C3.2_[C-2G]_[T-1C]_H3.2_A3.1_F3.1_T3.2_[T9C]_[A10T]],853
14,UCUCUUCCUGUAUAUAUGUCUCUU (ssRNA) [Id_ii_S1_P3E.2_K3.1_C3.2_[T-1C]_H3.1_A3.1_F3.1_T3.2_[A10G]],7.59
15,UCUCUUCGUACAUUAUCUCUU (ssRNA) [Ib_S1_P4E.1_K4.1_C4.1_H4.1_[T1C]_A4.1_[T5C]_F4.1_T4.1],16.8
16,UCUCUUCUUGUAUAUAUAUCUCUU (ssRNA) [Id_ii_S1_P3E.2_K3.1_C3.2_H3.1_A3.1_F3.1_T3.2],3.83
17,UCUCUUUGUAUAUAUAAUUCUCUU (ssRNA) [Id_ii_S1_P3E.3_K3.2_C3.2_[C-2T]_[T-1G]_H3.2_A3.1_F3.1_T3.2_[T9A]_[A10T]],8.44
18,UCUCUUCUUGUAUAUACGUCUCUU (ssRNA) [Id_ii_S1_P3E.2_K3.1_C3.2_H3.1_A3.1_F3.1_T3.2_[T9C]_[A10G]],10.9
19,UCUCUUGUUAUAUAUAUGUCUCUU (ssRNA) [Id_ii_S1_P3E.3_K3.2_C3.2_[C-2G]_H3.2_A3.1_F3.1_T3.2_[A10G]],46.3
20,UCUCUUCUUGUAUAUACUUCUCUU (ssRNA) [Id_ii_S1_P3E.2_K3.1_C3.2_H3.1_A3.1_F3.1_T3.2_[T9C]_[A10T]],7.04

row,Binder,Kd [nM]
1,UCUCUUGUUAUAUAUACGUCUCUU (ssRNA) [Id_ii_S1_P3E.3_K3.2_C3.2_[C-2G]_H3.2_A3.1_F3.1_T3.2_[T9C]_[A10G]],55.2
2,UCUCUUGAUAUAUAUAGCUCUCUU (ssRNA) [Id_ii_S1_P3E.3_K3.2_C3.2_[C-2G]_[T-1A]_H3.2_A3.1_F3.1_T3.2_[T9G]_[A10C]],500
3,UCUCUUCCUGUAUAUAUUUCUCUU (ssRNA) [Id_ii_S1_P3E.2_K3.1_C3.2_[T-1C]_H3.1_A3.1_F3.1_T3.2_[A10T]],5.94
4,UCUCUUCAUGUAUAUAGCUCUCUU (ssRNA) [Id_ii_S1_P3E.2_K3.1_C3.2_[T-1A]_H3.1_A3.1_F3.1_T3.2_[T9G]_[A10C]],5.33
5,UCUCUUCAUGUAUAUAACUCUCUU (ssRNA) [Id_ii_S1_P3E.2_K3.1_C3.2_[T-1A]_H3.1_A3.1_F3.1_T3.2_[T9A]_[A10C]],16.9
6,UCUCUUCCUGUAUAUAACUCUCUU (ssRNA) [Id_ii_S1_P3E.2_K3.1_C3.2_[T-1C]_H3.1_A3.1_F3.1_T3.2_[T9A]_[A10C]],6.69
7,UCUCUUUGUAUAUAUAACUCUCUU (ssRNA) [Id_ii_S1_P3E.3_K3.2_C3.2_[C-2T]_[T-1G]_H3.2_A3.1_F3.1_T3.2_[T9A]_[A10C]],4.91
8,UCUCUUCGUAAAUUAUCUCUU (ssRNA) [Ib_S1_P4E.1_K4.1_C4.1_H4.1_[T1C]_A4.1_[T5A]_F4.1_T4.1],139
9,UCUCUUCCUGUAUAUAUAUCUCUU (ssRNA) [Id_ii_S1_P3E.2_K3.1_C3.2_[T-1C]_H3.1_A3.1_F3.1_T3.2],3.76
10,UCUCUUGUUAUAUAUACUUCUCUU (ssRNA) [Id_ii_S1_P3E.3_K3.2_C3.2_[C-2G]_H3.2_A3.1_F3.1_T3.2_[T9C]_[A10T]],51.5
11,UCUCUUGUUAUAUAUAAAUCUCUU (ssRNA) [Id_ii_S1_P3E.3_K3.2_C3.2_[C-2G]_H3.2_A3.1_F3.1_T3.2_[T9A]],50
12,UCUCUUUGUAUAUAUACCUCUCUU (ssRNA) [Id_ii_S1_P3E.3_K3.2_C3.2_[C-2T]_[T-1G]_H3.2_A3.1_F3.1_T3.2_[T9C]_[A10C]],10
13,UCUCUUGGUAUAUAUAAUUCUCUU (ssRNA) [Id_ii_S1_P3E.3_K3.2_C3.2_[C-2G]_[T-1G]_H3.2_A3.1_F3.1_T3.2_[T9A]_[A10T]],524
14,UCUCUUCUUGUAUAUAGUUCUCUU (ssRNA) [Id_ii_S1_P3E.2_K3.1_C3.2_H3.1_A3.1_F3.1_T3.2_[T9G]_[A10T]],3.72
15,UCUCUUGUUAUAUAUAAUUCUCUU (ssRNA) [Id_ii_S1_P3E.3_K3.2_C3.2_[C-2G]_H3.2_A3.1_F3.1_T3.2_[T9A]_[A10T]],44.6
16,UCUCUUGCUAUAUAUAUGUCUCUU (ssRNA) [Id_ii_S1_P3E.3_K3.2_C3.2_[C-2G]_[T-1C]_H3.2_A3.1_F3.1_T3.2_[A10G]],754
17,UCUCUUCCUGUAUAUAUCUCUCUU (ssRNA) [Id_ii_S1_P3E.2_K3.1_C3.2_[T-1C]_H3.1_A3.1_F3.1_T3.2_[A10C]],4.74
18,UCUCUUCAUGUAUAUACUUCUCUU (ssRNA) [Id_ii_S1_P3E.2_K3.1_C3.2_[T-1A]_H3.1_A3.1_F3.1_T3.2_[T9C]_[A10T]],13.2

# From publication PMC9352680, “A comprehensive thermodynamic model for RNA binding by the Saccharomyces cerevisiae Pumilio protein PUF4”
